Data taken from US8927007B2, “Formulations for treatment with glucosinolates” (priority 2010, dated 2015).

Legend:
[1] = Long-term stability of myrosinase on Concanavalin A-Sepharose gels; format: physicochemical
Protocol: Con-A gel (1 ml) was packed in a 3 ml syringe, washed with 5 portions of 5 ml of 10 mM midazole, 1 mD EDTA, 1 mM DTT, 30% glycerol, pH 6.0. Subsequently, 10 ml of purified myrosinase (2.9 units/ml) (from 7 day-old daikon sprouts as described in Shikita et al. Biochem J. (1999) 341:725-732) were applied to the column and the effluent collected and reapplied to the column 3 more times until no activity was detected in the effluent. After washing 5 times with 5 ml of 33 mM potassium phosphate buffer (pH 6.0), 1 mM EDTA, and 0.5 mM ascorbate, the gel was transferred to a 10 ml syringe and mixed with 10 ml of 10 mM sinigrin in 33 mM potassium phosphate buffer. Aliquots (20 μl of the solution was withdrawn from the mixture every 30 sec., diluted with 0.98 ml of the 33 mM phosphate buffer, and the absorbance was measured at 227 nm against the same buffer. […]

[2] = Activity of myrosinase immobilized on Concanavalin A-Sepharose gel (sinigrin hydrolysis, absorbance at 227 nm); format: biochemical
Protocol: Con-A gel (1 ml) was packed in a 3 ml syringe, washed with 5 portions of 5 ml of 10 mM midazole, 1 mD EDTA, 1 mM DTT, 30% glycerol, pH 6.0. Subsequently, 10 ml of purified myrosinase (2.9 units/ml) (from 7 day-old daikon sprouts as described in Shikita et al. Biochem J. (1999) 341:725-732) were applied to the column and the effluent collected and reapplied to the column 3 more times until no activity was detected in the effluent. After washing 5 times with 5 ml of 33 mM potassium phosphate buffer (pH 6.0), 1 mM EDTA, and 0.5 mM ascorbate, the gel was transferred to a 10 ml syringe and mixed with 10 ml of 10 mM sinigrin in 33 mM potassium phosphate buffer. Aliquots (20 μl of the solution was withdrawn from the mixture every 30 sec., diluted with 0.98 ml of the 33 mM phosphate buffer, and the absorbance was measured at 227 nm against the same buffer. After 10 collections (5 min), the gel was washed with 3 portions of 5 ml of 33 mM potassium phosphate buffer, and 3 portions of 5 ml 10 mM midazole, 1 mM EDTA, 1 mD DTT, 30% glycerol, pH 6.0, and stored at 4° C. for the next test.

myrosinase (β-thioglucoside glucohydrolase) [Immobilized enzyme]
stability without refrigeration ([1]; immobilized on Con-A gels, without refrigeration): stable indefinitely
changes of activity on storage ([1]; over at least the next 7 days, kept at 4° C. in 20% glycerol): no significant changes of activity
stability of immobilized enzyme at room temperature ([1]; room temperature, period of several weeks): stable
elution of the enzyme from the column ([1]; under conditions required for hydrolysis): no significant elution
sinigrin hydrolyzed ([2]; immobilized on Con-A gel, 10 ml of 10 mM sinigrin in 33 mM potassium phosphate buffer, 10 collections (5 min)): more than 25 μmol
enzymatic activity when immobilized on Con-A gels ([2]; immobilized on Con-A gels): retain its enzymatic activity
